US12667614B2, “Bacterial microcompartment virus-like particles” (National University of Singapore, priority 2020, dated 2026)

B1: Free APEX2 (evolved pea cytosolic ascorbate peroxidase), N-terminal His6, fused to S2CP(30); APEX2-S2CP(30), SEQ ID NO: 110 (Glycine max; A134P/E112K/K14D/W41F) (protein)
chain: MGSSHHHHHHSSGMGKSYPTVSADYQDAVEKAKKKLRGFIAEKRCAPLMLRLAFHSAGTFDKGTKTGGPFGTIKHPAELAHSANNGLDIAVRLLEPLKAEFPILSYADFYQLAGVVAVEVTGGPKVPFHPGREDKPEPPPEGRLPDPTKGSDHLRDVFGKAMGLTDQDIVALSGGHTIGAAHKERSGFEGPWTSNPLIFDNSYFTELLSGEKEGLLQLPSDKALLSDPVFRPLVDKYAADEDAFFADYAEAHQKLSELGFADAGSSKPEKPGSKITGSSGNDTQGSLITYSGGARG
B2: APEX2 + shell: APEX2 (evolved pea cytosolic ascorbate peroxidase), N-terminal His6, fused to S2CP(30), SEQ ID NO: 110, encapsulated in Cso-BMC (Cso-PSIIH) … (protein)
chain: B1 chain

Tests used:
[1] = substrate: COc1ccccc1O; assay: Steady-state kinetics of free APEX2 (guaiacol oxidation); assay type: biochemical, pea; conditions: other: free APEX2 10 nM, guaiacol 0.20 to 2.0 mM, H2O2 1 mM, TBS-50/350 pH 8.0, mean with standard error, triplicates, 30.0 °C
Method: (§1) For APEX2, all reagents were made to the appropriate working concentrations using TBS-50/350 pH 8.0. Working solutions of guaiacol and H2O2, both at 10 mM, were prepared on the day of assay. The guaiacol solution was shaken vigorously at 30° C. to ensure complete dissolution before equilibration back to room temperature. The assay concentration for APEX2 was 10 nM, H2O2 1 mM and that for guaiacol ranged from 0.20 to 2.0 mM. Total reaction volume was 200 μL. Reactions were monitored by the absorbance of tetraguaiacol formed at 470 nm using a BioTek Synergy™ HT microplate reader. […] This time point was taken for initial rate, V0, measurement. Kinetic constants were obtained using non-linear least square Michaelis-Menten fitting in GraphPad Prism software.
To probe the capacity of the Cso-BMC for encasing enzymes of considerably different molecular sizes, an evolved pea cytosolic ascorbate peroxidase (APEX2), a 27.0 kDa monomer [Lam et al., Nature Methods 12(1): 51-54 (2015)], and E. coli beta-galactosidase (LacZ), a 466.0 kDa homotetramer, were chosen for encapsulation [Golan, et al., Biochimica et Biophysica Acta (BBA)—Bioenergetics, 1293(2): 238-242; Lam et al., Nature Methods 12(1): 51-54 (2015)]. […] Enzymes were also N-terminally tagged with the hexahistidine (Hiss) tag to facilitate downstream removal of unencapsulated enzymes that might co-purify with shells (Nichols, Kennedy, & Tullman-Ercek, 2019). Cso-PSIIH shells co-expressed with enzymes were constructed and purified. SDS-PAGE analysis and Western blotting confirmed the presence of the target enzymes in shell samples (FIG. 18A-B) and the average copy numbers of enzymes per shell were estimated by Coomassie blue densitometry (Table 8) [Hagen, A., et al., Nature Communications 9: 2881 (2018); Nichols et al., Methods in Enzymology, 617, 155-186 (2019)].
Encapsulation of an enzyme into a protein shell is known to alter the enzyme's catalytic properties in some cases. […]

[2] = substrate: COc1ccccc1O; assay: Steady-state kinetics of Cso-BMC encapsulated APEX2 (guaiacol oxidation); assay type: biochemical, pea; conditions: other: encapsulated APEX2 10 nM, guaiacol 0.20 to 2.0 mM, H2O2 1 mM, TBS-50/350 pH 8.0, mean with standard error, triplicates, 30.0 °C
Method: as §1
To probe the capacity of the Cso-BMC for encasing enzymes of considerably different molecular sizes, an evolved pea cytosolic ascorbate peroxidase (APEX2), a 27.0 kDa monomer [Lam et al., Nature Methods 12(1): 51-54 (2015)], and E. coli beta-galactosidase (LacZ), a 466.0 kDa homotetramer, were chosen for encapsulation [Golan, et al., Biochimica et Biophysica Acta (BBA)—Bioenergetics, 1293(2): 238-242; Lam et al., Nature Methods 12(1): 51-54 (2015)]. […]

Row | Protein | Km [1] | kcat [1] | kcat/Km [1] | Km [2]
1 | B1 | 0.58 ± 0.07 mM | 460 ± 20 s⁻¹ | 7.93 ± 1.02 × 10^5 (s^−1 · M^−1) | –
2 | B2 | – | – | – | 0.79 ± 0.12 mM
